The assay deals with full-length talin1 purified from turkey gizzard (turkey). The assay is described as follows: electron microscopy single-particle 3D reconstruction.

As usually defined, the stoichiometry N is a count of units in the complex or per binding partner.

For “full-length talin1 purified from turkey gizzard”, the stoichiometry N came to 2.

The values are drawn from paper PMC3799832.
